Laboratory results published in US20230190900 (published 2023).

Columns and labels:
murine FcγRIII = biological target: T1, murine FcγRIII (mouse, UniProt P08508); assay: SPR
T1 chain: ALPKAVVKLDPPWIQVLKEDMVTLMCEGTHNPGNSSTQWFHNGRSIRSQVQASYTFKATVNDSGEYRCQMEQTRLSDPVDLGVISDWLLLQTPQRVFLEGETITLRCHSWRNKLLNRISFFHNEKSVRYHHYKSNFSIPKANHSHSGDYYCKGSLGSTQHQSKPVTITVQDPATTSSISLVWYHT

human FcγRIIb (CD32B) = biological target: T2, human FcγRIIb (CD32B) (human, UniProt P31994); assay: SPR
T2 chain: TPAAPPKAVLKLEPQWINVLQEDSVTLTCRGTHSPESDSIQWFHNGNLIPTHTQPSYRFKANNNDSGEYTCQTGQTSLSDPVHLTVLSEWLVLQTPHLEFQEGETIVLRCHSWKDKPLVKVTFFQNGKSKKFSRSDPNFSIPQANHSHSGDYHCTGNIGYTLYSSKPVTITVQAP

human FcγRIIc (CD32C) = biological target: T3, human FcγRIIc (CD32C) (human, UniProt P31995); assay: SPR
T3 chain: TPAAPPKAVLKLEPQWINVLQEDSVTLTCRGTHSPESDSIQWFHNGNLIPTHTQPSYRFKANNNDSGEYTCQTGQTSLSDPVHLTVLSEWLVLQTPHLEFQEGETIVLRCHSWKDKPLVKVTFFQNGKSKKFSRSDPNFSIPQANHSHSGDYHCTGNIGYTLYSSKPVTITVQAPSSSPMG

human FcγRI (CD64) = biological target: T4, human FcγRI (CD64) (human, UniProt P12314); assay: SPR
T4 chain: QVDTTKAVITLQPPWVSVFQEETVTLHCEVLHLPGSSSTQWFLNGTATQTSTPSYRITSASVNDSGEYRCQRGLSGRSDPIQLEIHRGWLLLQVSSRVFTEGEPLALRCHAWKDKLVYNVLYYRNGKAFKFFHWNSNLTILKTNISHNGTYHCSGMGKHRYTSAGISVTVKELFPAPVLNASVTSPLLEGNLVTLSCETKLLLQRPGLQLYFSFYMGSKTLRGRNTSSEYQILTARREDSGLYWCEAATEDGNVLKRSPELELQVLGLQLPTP

[1] = biological target: T5, human FcγRIIIb (NA1) CD16B (human, UniProt O75015); assay: SPR
T5 chain: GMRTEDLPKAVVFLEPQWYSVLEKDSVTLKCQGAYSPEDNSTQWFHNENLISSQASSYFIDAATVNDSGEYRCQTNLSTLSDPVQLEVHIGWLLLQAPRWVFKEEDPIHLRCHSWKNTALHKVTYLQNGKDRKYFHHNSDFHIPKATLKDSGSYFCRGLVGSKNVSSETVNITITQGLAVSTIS

murine FcγRI = biological target: T6, murine FcγRI (mouse, UniProt P26151); assay: SPR
T6 chain: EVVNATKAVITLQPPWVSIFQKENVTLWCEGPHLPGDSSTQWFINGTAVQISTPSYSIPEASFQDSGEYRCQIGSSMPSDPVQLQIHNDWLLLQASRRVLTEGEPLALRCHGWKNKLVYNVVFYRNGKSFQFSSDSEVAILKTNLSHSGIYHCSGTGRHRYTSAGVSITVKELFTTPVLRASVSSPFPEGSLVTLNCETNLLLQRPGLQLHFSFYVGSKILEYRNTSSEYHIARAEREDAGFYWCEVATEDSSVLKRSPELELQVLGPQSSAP

human FcRn = human FcRn (human, UniProt P55899); assay: SPR, pH 6.0
murine FcγRIV (CD16-2) = biological target: T7, murine FcγRIV (CD16-2) (mouse, UniProt A0A0B4J1G0); assay: SPR
T7 chain: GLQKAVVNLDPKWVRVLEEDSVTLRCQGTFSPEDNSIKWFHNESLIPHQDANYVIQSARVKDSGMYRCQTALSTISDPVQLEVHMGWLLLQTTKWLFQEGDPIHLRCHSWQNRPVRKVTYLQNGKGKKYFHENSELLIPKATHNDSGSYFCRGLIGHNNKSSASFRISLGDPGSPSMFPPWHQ

murine FcRn = biological target: T8, murine FcRn (mouse, UniProt Q61559); assay: SPR, pH 6.0
T8 chain 1: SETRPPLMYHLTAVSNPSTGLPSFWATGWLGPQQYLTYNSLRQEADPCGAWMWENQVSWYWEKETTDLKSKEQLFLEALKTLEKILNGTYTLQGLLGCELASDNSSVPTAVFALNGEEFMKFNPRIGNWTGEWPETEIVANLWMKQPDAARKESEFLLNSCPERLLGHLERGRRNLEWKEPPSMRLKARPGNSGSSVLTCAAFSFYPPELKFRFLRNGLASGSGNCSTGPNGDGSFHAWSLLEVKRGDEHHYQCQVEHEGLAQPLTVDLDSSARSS
T8 chain 2: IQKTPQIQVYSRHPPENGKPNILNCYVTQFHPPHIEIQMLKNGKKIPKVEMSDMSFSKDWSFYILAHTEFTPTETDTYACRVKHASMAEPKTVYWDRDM

[2] = biological target: T9, cynomolgus FcγRIIa (CD32A) (cynomolgus); assay: SPR
T9 chain: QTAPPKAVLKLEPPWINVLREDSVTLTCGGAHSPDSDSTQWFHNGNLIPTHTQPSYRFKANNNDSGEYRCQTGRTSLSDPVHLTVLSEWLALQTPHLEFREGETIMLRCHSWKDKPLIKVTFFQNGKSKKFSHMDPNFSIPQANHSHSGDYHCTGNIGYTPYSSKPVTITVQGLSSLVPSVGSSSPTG

human FcγRIIa (CD32A) = biological target: T10, human FcγRIIa (CD32A) (human, UniProt P12318); assay: SPR
T10 chain: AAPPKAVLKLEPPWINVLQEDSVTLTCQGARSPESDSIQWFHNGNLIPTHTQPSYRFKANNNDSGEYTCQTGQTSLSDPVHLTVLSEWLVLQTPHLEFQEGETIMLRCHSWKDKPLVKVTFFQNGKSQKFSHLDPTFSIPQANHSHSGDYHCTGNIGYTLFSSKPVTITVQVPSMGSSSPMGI

murine FcγRIIb = biological target: T11, murine FcγRIIb (mouse, UniProt P08101); assay: SPR
T11 chain: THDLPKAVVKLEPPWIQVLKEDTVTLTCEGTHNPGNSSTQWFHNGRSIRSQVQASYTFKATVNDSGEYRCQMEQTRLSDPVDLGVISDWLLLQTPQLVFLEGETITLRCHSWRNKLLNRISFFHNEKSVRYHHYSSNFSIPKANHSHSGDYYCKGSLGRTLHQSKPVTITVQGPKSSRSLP

cynomolgus FcRn = biological target: T12, cynomolgus FcRn (cynomolgus, UniProt Q8SPV9); assay: SPR, pH 6.0
T12 chain 1: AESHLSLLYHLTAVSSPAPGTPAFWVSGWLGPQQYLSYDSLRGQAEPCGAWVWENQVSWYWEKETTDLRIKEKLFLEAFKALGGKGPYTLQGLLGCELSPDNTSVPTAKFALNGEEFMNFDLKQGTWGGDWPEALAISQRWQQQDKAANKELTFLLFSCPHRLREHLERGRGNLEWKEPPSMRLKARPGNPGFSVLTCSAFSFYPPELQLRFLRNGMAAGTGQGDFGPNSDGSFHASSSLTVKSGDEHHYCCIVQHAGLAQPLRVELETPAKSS
T12 chain 2: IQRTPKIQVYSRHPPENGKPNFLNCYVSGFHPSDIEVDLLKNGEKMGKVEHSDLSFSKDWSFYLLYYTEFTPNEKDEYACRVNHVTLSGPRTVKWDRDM

Measured: binding result

B1: EGFR/CD16A tandem diabody (full) (antibody)
chain 1: QVQLQESGPGLVKPSETLSLTCTVSGGSVSSGSYYWSWIRQPPGKGLEWIGYIYYSGSTNYNPSLKSRVTISVDTSKNQFSLKLSSVTAADTAVYYCARNPISIPAFDIWGQGTMVTVSSGGSGGSGGSSYVLTQPSSVSVAPGQTATISCGGHNIGSKNVHWYQQRPGQSPVLVIYQDNKRPSGIPERFSGSNSGNTATLTISGTQAMDEADYYCQVWDNYSVLFGGGTKLTVLGGSGGSQVQLVQSGAEVKKPGESLKVSCKASGYTFTSYYMHWVRQAPGQGLEWMGIINPSGGSTSYAQKFQGRVTMTRDTSTSTVYMELSSLRSEDTAVYYCARGSAYYYDFADYWGQGTLVTVSSGGSGGSGGSQPVLTQPPSVSVAPGKTARITCGGNNIGSKSVHWYQQKPGQAPVLVIYYDSDRPSGIPERFSGSNSGNTATLTISRVEAGDEADYYCQVWDTSSDHVLFGGGTKLTVLAAAGSHHHHHH
chain 2: B1 chain 1
no binding: murine FcγRIII | human FcγRIIb (CD32B) | human FcγRIIc (CD32C) | human FcγRI (CD64) | [1] | murine FcγRI | human FcRn | murine FcγRIV (CD16-2) | murine FcRn | [2] | human FcγRIIa (CD32A) | murine FcγRIIb | cynomolgus FcRn
